Test system: MS2 coat protein
Assay: apparent KD of MS2 coat protein; designed switch direction (-1 OFF switch, 1 ON switch): -1; higher = weaker reporter binding
Method in brief: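 Three titration conditions were used: no input, 200 uM small-molecule ligand, and an oligonucleotide input. In each, SNAP-549-labelled MS2 coat protein was raised from 0.7 or 1.5 nM, doubling, to 3 µM over designed RNA switches transcribed on Illumina chips by stalled E. coli RNA polymerase. Curve fits of normalised cluster fluorescence gave values whose per-design median over clusters is the apparent KD.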

[1] = Eterna round: R95, input ligand: microRNA oligo, concentration not stated
[2] = Eterna round: R95, input ligand: FMN 200 uM
[3] = Eterna round: R95, input ligand: none
[4] = input ligand: microRNA oligo, concentration not stated

Row | Sequence | apparent KD of MS2 coat protein [1] [nM] | apparent KD of MS2 coat protein (input ligand: FMN 200 uM) [nM] | apparent KD of MS2 coat protein (input ligand: none) [nM] | also measured
1 | CCAAGCUGUGUGAGGAUAUGCUGAACCUUGGUUCAGCAGAAGGCACAUGAGGAUCACCCAUGUGAAGAGCUUGG [Mat - Exclusion 4 - JL Mod - D96] (puzzle: Brourd's mod of Exclusion 4) | 16.6 | – | – | –
2 | AAGUACCGUCACGAUAGUGAUGGUACAACAAGUAGUGAAACAUGAGGAUCACCCAUGUCCUCAUUUGCUCGUCUUAU [Sensor 3 - 87] (puzzle: Sensor v3, turn-off variant 2) | 365 | – | – | apparent KD of MS2 coat protein [2]: 1030 nM; apparent KD of MS2 coat protein [3]: 806 nM
3 | UCCGUGUCAGGAUAUGCUAGCGCAAAGUUGCCCGCGCUGUAGCAGAAGGGACAUGAGGAUCACCCAUGUCUACA [Exclusion 4 (Mod of Nando's EX4 C.10 cleaner dot)] (Eterna round: R97, puzzle: Exclusion 4) | – | 70.7 | 20.4 | –
4 | CGUGUGUGAGGAUAUGACAAUGGUAUCUUCGGAUACCAUUGUCAGAAGGUACAUGAGGAUCACCCAUGUAGAUC [Exclusion 4 - Mod Brourd Ex 4-3: 20 v.2] (puzzle: Exclusion 4) | 35.6 | – | – | –
5 | GUGUAGAUAGGAUAUGCGUGAGUCUAGCGAAGCUAGGCUCUACAUGAGGAUCACCCAUGUAGAAGGGUCUACAC [Dot plot directed A v14] (puzzle: Exclusion 2) | 17.3 | – | – | –
6 | AGUCCAGACGGACCCUCUAACAUGAGGAUCACCCAUGUAGCGGAGGAUAUCCGAAUUUGGGCGACGGAGAAGGCCGUUGCAGGG [Edsosobi] (Eterna round: R96, puzzle: Exclusion NG 3) | – | 21.3 | 27.5 | apparent KD of MS2 coat protein [4]: 27 nM
7 | CACAUCAAAGGAUAUCUGGACCAAAACAUGAGGAUCACCCAUGUAUGAACAUGGCUCGACGGAGAAGGUUGGCUUC [Eternabot (L1) Solution 51] (Eterna round: R97, puzzle: Exclusion 5) | – | 86.2 | 79.3 | –
8 | UCGGAUAGAGGAUAUACAUGAGGAUCACCCAUGUGGUCAAGCGGGUACGCCCAGCGAGGUAGAAGGCUAUCCGG [Eternabot (L1) Solution 16] (Eterna round: R97, puzzle: Exclusion 3) | – | 407 | 136 | –
9 | UUUUAGUAAGGAUAUGUGGUACGCUUAAAAUAGGAAGGGACACAGAAGGUACAUGAGGAUCACCCAUGUGAACC [Eternabot (L1) Solution 49] (Eterna round: R97, puzzle: Exclusion 4) | – | 140 | 61.9 | –
10 | CAAAUCUGAGGAUAUCGAUAUUUGUACAUGAGGAUCACCCAUGUCCUAUUUAUAAAAUCCCGAGAAGGCAGUGUAU [JR_E5_Sub095] (puzzle: Exclusion 5) | 16.2 | – | – | –
11 | CGUUCGCGAGGAUAUGCAUUCGAGUCCACUACGUGUCUGGGACUUGAGGAUCACCCAAGUAGAAGGCGCCUCAC [salish99_ex2_r4_648] (Eterna round: R97, puzzle: Exclusion 2) | – | 83.9 | 135 | –
12 | CAGAGGAGACGGAGAUCCAACAUGAGGAUCACCCAUGUCUCAAAAGCUUUUUGCUUGUCUUAUCCUCCUCUCUUCAC [Mat - Sensor, turn-off var - Eli Mod - D59] (Eterna round: R97, puzzle: Sensor, turn-off variant 1) | – | 27.1 | 28.1 | –
13 | AAUAACAGAGGAUAUACUAUUUUAUGUGUUUGUUAUUUUAAACAUGAGGAUCACCCAUGUAGAAGGCUGAUUGA [JMF 72] (puzzle: Exclusion 2) | 41 | – | – | –
14 | GAUUAUGCGAGCUUUAGGGACAUGAGGAUCACCCAUGUUCGUCUUAUUAAUCUGGGUGCGCUAACAUACCUAAAUCU [JMF 52] (puzzle: Sensor v3, turn-off variant 1) | 113 | – | – | apparent KD of MS2 coat protein [2]: 56 nM; apparent KD of MS2 coat protein [3]: 87.4 nM
15 | ACAAGCUUUUUGUUCGUCUUAUAAUAUUCUAAGAGGAUAACAUGAGGAUCACCCAUGUAACAAAGACGGACUCAUGU [Sesor Array 14 - Jieux - Sensor v3, turn-off variant 2] (puzzle: Sensor v3, turn-off variant 2) | 139 | – | – | apparent KD of MS2 coat protein [2]: 13 nM; apparent KD of MS2 coat protein [3]: 11.7 nM
16 | GAAAAGGUAGGAUAUACGAAAACAAAGGGUAGAAACAAAACACAUGAGGAUCACCCAUGUAGAAGGACCAAAAG [salish99_ex2_r3_097] (Eterna round: R96, puzzle: Exclusion 2) | – | – | – | apparent KD of MS2 coat protein [4]: 30.8 nM
17 | AGAAAGUCAGGAUAUCGAAGGUAGUGGAGAGGAGUGUGGUACGAGAAGGGACAUGAGGAUCACCCAUGUAGGAG [JR_Exclusion4)Sub007] (puzzle: Exclusion 4) | 31.1 | – | – | –
18 | UGUUUACAUGAGGAUCACCCAUGUCAGGAUAUGCUCGAUAUAUGGAAACAUAUAUCGAGCAGAAGGGACUAGCG [Jieuxxlusion 4 - Jieux - Exclusion 1] (Eterna round: R97, puzzle: Exclusion 1) | – | 85 | 39.3 | –

Row | Sequence | apparent KD of MS2 coat protein [1] [nM] | apparent KD of MS2 coat protein (input ligand: FMN 200 uM) [nM] | apparent KD of MS2 coat protein (input ligand: none) [nM] | also measured
19 | AAACGUAGACAGGAUAUCUGCGCCCUUGGUUAAAGAGAAGGGUCUACAUGAGGAUCACCCAUGUGGUGUAACUC [Dibedididi] (puzzle: Exclusion 6) | 18.4 | – | – | apparent KD of MS2 coat protein [2]: 13.8 nM; apparent KD of MS2 coat protein [3]: 23.6 nM
20 | CGCUGGGCAGGAUAUGUUCUUGAGCACUUGAGGAUCACCCAAGUCAUCAAGAACUCAGGCACAGAAGGGUUUAUGG [salish99_ex5_r4_017] (Eterna round: R97, puzzle: Exclusion 5) | – | 10.5 | 13.4 | –
21 | UUGUAACAUGAGGAUCACCCAUGUGAGGAUAUGGCCCGCCCGGCGUGAGCUGGUUUUGUCAGAAGGCGCAUAGG [salish99_ex1_r4_022] (Eterna round: R97, puzzle: Exclusion 1) | – | 158 | 49.9 | –
22 | UAGAUGGGAGGAUAUGCAUAGAUACAGAUUCGUGUAGUGCUACAUGAGGAUCACCCAUGUAGAAGGCCCGUCUU [JL-ex2-2.22 Mayanne mod] (puzzle: Exclusion 2) | 14.2 | – | – | –
23 | ACAAGCUUUUAGAUUCUUAACAUGAGGAUCACCCAUGUGCUCGUCUUAUUGGCCGGCCGGCCGCCGGAAAAGCUUGU (Eterna round: R97, puzzle: Sensor, turn-off variant 1) | – | 24.9 | 25.3 | –
24 | CCUCUAUUUGUGAGGAUAUCGGUAAACUGGAUUGUCGAGAAGGCACAUGAGGAUCACCCAUGUAUUGAACAGCA [JR_BMEx4_Sub021] (Eterna round: R97, puzzle: Brourd's mod of Exclusion 4) | – | 203 | 31.2 | –
25 | ACUCAAUAGUAGGAUAUCAUCAAACUAUUGUGAUGAGAAGGACUAACAUGAGGAUCACCCAUGUUAACGUGAAG [Mod of Brourd 4 - Jieux - Exclusion 6] (Eterna round: R97, puzzle: Exclusion 6) | – | 23 | 20.3 | –
26 | GUGUAGACAGGAUAUGCUUUGAGCAUAUGAGAGUAUGCUCUACAUGAGGAUCACCCAUGUAGAAGGGUCUACAC [LRO-Excl2-01] (puzzle: Exclusion 2) | 11 | – | – | –
27 | AGUACUAACACGAAAGUGUUAGUACAACAAGCUUGUGAAACAUGAGGAUCACCCAUGUCCUCAUAAGCUCGUCUUAU [salish99_TOv2_r3_042] (puzzle: Sensor v3, turn-off variant 2) | 463 | – | – | apparent KD of MS2 coat protein [2]: 13.7 nM; apparent KD of MS2 coat protein [3]: 11.9 nM
28 | CCUCGACAUGAGGAUCACCCAUGUCAGGAUAUUGUGUAUCGGGUUUUUUACCGAAAGGCGAGAAGGGAUGUGUG [LRO-Excl1-11] (puzzle: Exclusion 1) | 15 | – | – | –
29 | UUACGGAUAGAGGAUAUAUUAAGGAAGGUUACGAUAGAAGGCUAGACAUGAGGAUCACCCAUGUAUAUUGGGAU [JR_Ex6_Sub072] (Eterna round: R97, puzzle: Exclusion 6) | – | 172 | 144 | –
30 | CUCUUGUCAGGAUAUCUAAGCUGCCUCCCAGUAGCCGAAUUAGAGAAGGGACAUGAGGAUCACCCAUGUAAACG [Enaeren] (puzzle: Exclusion 4) | 106 | – | – | –
31 | CUAAACGCAGGAUAUACAUGAGGAUCACCCAUGUUUGGCCAGUAAACAAGUCGUCUUAGUAGAAGGGCGUUUAG [Eternabot (Original) Solution 42] (Eterna round: R97, puzzle: Exclusion 3) | – | 544 | 40.1 | –
32 | CGGAGACAUGAGGAUCACCCAUGUGAGGAUAUGGCGUGCGCUACUAAAGGUGGUUGCUCCAGAAGGCGCGGUGU [Eternabot (L1) Solution 3] (Eterna round: R97, puzzle: Exclusion 1) | – | 74.5 | 65.2 | –
33 | UAUAUAUAGUAAGGAUAUGUAUUAAUUUUACAAACAGAAGGUACUGACAUGAGGAUCACCCAUGUUUUAGUGUGGGCAUGUAGA [JMF's solution 89] (Eterna round: R96, puzzle: Exclusion NG 1) | – | – | – | apparent KD of MS2 coat protein [4]: 45.9 nM
34 | AGAUAGUGGUGAGGAUAUCAGAAUAGAAAGAAAUGAGAAGGCACACAUGAGGAUCACCCAUGUGAGUUCUUGAGAUUACAUGGU [Prohibition 41 - Jieux - Exclusion NG 1] (Eterna round: R96, puzzle: Exclusion NG 1) | – | – | – | apparent KD of MS2 coat protein [4]: 14.4 nM
35 | GAUCUACAUGAGGAUCACCCAUGUGAGGAUAUUUAGACCAACGCUCUAGCUGUUGAUGGAAGAAGGCACCACCG [Eternabot (L2) Solution 56] (Eterna round: R97, puzzle: Exclusion 1) | – | 25.4 | 26.2 | –
36 | CAGAUGGGUAACUACACCCACAUGAGGAUCACCCAUGUACACAUAGCUUACGCUCGUCUUAAGCGUGUUUUCGUAGC [Eternabot (L2) Solution 10] (Eterna round: R97, puzzle: Sensor, turn-off variant 1) | – | 32 | 33.4 | –
